Test results: publication PMC11703230 (bioRxiv, 2025)

B1: MBP-Sir4(744-1358) (domain or fragment, S. cerevisiae, UniProt P11978 744-1358, looked up)
chain: PGKMELVYVSDSDDSSSDNDSLTDLESLSSGESNEIKVTNDLDTSAEKDQIQAGKWFDPVLDWRKSDRELTKNILWRIADKTTYDKETITDLIEQGIPKHSYLSGNPLTSVTNDICSVENYETSSAFFYQQVHKKDRLQYLPLYAVSTFENTNNTEKNDVTNKNINIGKHSQEQNSSSAKPSQIPTVSSPLGFEETKLSTTPTKSNRRVSHSDTNSSKPKNTKENLSKSSWRQEWLANLKLISVSLVDEFPSELSDSDRQIINEKMQLLKDIFANNLKSAISNNFRESDIIILKGEIEDYPMSSEIKIYYNELQNKPDAKKARFWSFMKTQRFVSNMGFDIQKSCEPVSISTSVKPHVVEPEHMADAKIMPKDILQITKKPLMVKNVKPSSPPDVKSLVQLSTMETKTLPEKKQFDSIFNSNKAKIIPGNGKHASENISLSFSRPASYGYFSVGKRVPIVEDRRVKQLDDITDSNTTEILTSVDVLGTHSQTGTQQSNMYTSTQKTELEIDNKDSVTECSKDMKEDGLSFVDIVLSKAASALDEKEKQLAVANEIIRSLSDEVMRNEIRITSLQGDLTFTKKCLENARSQISEKDAKINKLMEKDFQVNKEIKPY
B2: MBP-Sir4(1150-1358) (domain or fragment, S. cerevisiae, UniProt P11978 1150-1358, looked up)
chain: KTLPEKKQFDSIFNSNKAKIIPGNGKHASENISLSFSRPASYGYFSVGKRVPIVEDRRVKQLDDITDSNTTEILTSVDVLGTHSQTGTQQSNMYTSTQKTELEIDNKDSVTECSKDMKEDGLSFVDIVLSKAASALDEKEKQLAVANEIIRSLSDEVMRNEIRITSLQGDLTFTKKCLENARSQISEKDAKINKLMEKDFQVNKEIKPY

Legend:
Assay in all cases: cross-linking
[1] = target: Sir3 winged helix deletion (Sir3 1-850) (S. cerevisiae, UniProt P06701 1-850)
Sir3 winged helix deletion (Sir3 1-850), sequence (P06701 1-850, stated change not applied): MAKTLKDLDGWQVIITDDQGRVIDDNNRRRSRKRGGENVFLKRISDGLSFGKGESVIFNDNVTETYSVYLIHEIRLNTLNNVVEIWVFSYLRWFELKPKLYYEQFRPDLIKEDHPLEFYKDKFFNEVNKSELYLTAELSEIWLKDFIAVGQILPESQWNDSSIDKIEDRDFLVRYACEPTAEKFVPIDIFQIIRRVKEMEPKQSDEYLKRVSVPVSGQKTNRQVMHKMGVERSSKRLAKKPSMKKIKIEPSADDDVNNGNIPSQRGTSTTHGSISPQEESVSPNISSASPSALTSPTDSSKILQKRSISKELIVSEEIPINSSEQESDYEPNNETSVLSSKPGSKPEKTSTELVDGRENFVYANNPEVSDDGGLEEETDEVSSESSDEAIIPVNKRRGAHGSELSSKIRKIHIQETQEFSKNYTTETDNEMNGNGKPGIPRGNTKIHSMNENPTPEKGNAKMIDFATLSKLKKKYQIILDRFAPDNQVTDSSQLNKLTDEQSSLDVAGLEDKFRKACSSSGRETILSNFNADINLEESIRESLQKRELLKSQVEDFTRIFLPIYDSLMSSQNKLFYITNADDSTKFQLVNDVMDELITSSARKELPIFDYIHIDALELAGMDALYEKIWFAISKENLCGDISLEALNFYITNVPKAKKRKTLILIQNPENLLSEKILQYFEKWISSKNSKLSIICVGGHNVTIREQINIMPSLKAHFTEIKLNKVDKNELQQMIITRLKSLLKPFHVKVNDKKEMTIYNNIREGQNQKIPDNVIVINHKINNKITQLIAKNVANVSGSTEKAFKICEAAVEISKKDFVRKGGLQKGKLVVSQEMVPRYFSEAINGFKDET

[2] = target: the molecule itself
[3] = target: Sir2 (untagged final), full-length (S. cerevisiae, UniProt P06700 1-562)
Sir2 (untagged final), full-length, sequence (P06700 whole entry): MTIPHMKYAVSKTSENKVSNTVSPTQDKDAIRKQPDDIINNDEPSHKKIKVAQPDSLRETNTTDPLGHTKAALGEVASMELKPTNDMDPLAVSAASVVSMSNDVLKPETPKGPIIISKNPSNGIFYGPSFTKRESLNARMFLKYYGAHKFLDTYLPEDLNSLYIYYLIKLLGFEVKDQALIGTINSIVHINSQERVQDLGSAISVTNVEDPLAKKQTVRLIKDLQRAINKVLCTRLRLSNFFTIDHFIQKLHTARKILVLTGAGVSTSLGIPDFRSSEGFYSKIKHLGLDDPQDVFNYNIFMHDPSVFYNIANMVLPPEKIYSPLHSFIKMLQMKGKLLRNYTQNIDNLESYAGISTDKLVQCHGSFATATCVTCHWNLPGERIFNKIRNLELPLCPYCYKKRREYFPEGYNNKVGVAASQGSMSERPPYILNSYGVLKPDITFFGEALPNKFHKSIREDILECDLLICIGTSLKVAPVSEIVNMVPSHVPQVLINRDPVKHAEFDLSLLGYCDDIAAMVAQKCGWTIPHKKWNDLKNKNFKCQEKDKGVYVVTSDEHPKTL

Row | Binder | binding result [1] | binding result [2] | binding result [3]
1 | B1 | binds | binds | 
2 | B2 |  |  | binds
